The target of the assay is mouse recombinant TNF (mouse) (UniProt P06804).
Chain of UniProt P06804 (P06804 80-235): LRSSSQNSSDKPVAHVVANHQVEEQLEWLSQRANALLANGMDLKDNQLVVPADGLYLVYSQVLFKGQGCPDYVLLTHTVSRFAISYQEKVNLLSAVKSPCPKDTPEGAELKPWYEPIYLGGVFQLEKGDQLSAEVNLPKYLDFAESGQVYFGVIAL

Regarding “BmooMP-alpha-I, zinc metalloprotease of class P-I from Bothrops moojeni snake venom (enzyme)”, the TNF level detected by sandwich ELISA after preincubation of recombinant TNF (1000 pg/mL) with 12 ug/mL BmooMP-alpha-I for 45 min at 37 °C (degradation of TNF) was 53.4 % decrease and the TNF level detected by sandwich ELISA after preincubation of recombinant TNF with BmooMP-alpha-I inactivated with 10 mM Na2EDTA (BmooMP-alpha-I(i)) came to 80%.
